This data set concerns the molecule itself. Kind of data set: transmission electron microscopy + FTIR; negative-stain TEM of the samples fibrillated in Mueller-Hinton medium; FTIR of fibril pellets prepared in 50 mM phosphate buffer pH 7.4.

Where no end group is shown, it is not given here.

B1: magainin 2a (peptide)
peptide: GIGKFLHSAKKFGKAFVGEIMNS-NH2
notes: magainin 2, antimicrobial peptide of Xenopus laevis skin secretions, cut from the magainins precursor; Forms fibrils (many copies); source: synthetic peptide (solid-phase synthesis, Fmoc chemistry; reverse phase HPLC purified)
Turning to B1, the binding result is listed as “binds”.

These data come from PMC7554302, “The Reversible Non-covalent Aggregation Into Fibers of PGLa and Magainin 2 Preserves Their Antimicrobial Activity and Synergism” (Frontiers in Cellular and Infection Microbiology, 2020).
